Experimental data published in article PMC12114895, “Lanthanides-Based Nanoparticles Conjugated with Rose Bengal for FRET-Mediated X-Ray-Induced PDT” (Pharmaceuticals, 2025).
Ends that are not written are not given here. RB = not defined here

Assays:
Zeta potential = assay type: physicochemical; details: DLS, Zetasizer Nano-Z, He-Ne 633 nm; pH 7.2 mentioned; listed as AGuIX Ln@Mal-K(RB)DKPPR (Ln = Tb)
Protocol: The zeta potential (ξ) for each NPs was determined using Zetasizer Nano-Z (Malvern, UK) equipped with a He-Ne laser at 633 nm.

[1] = Hydrodynamic size by TDA-ICP-MS; assay type: physicochemical; details: Table 4, listed as AGuIX Ln@Mal-K(RB)DKPPR (Ln = Tb)
Protocol: TDA experiments were conducted using a TDA-ICP-MS hyphenation between a Sciex P/ACE MDQ instrument and a 7700 Agilent ICP-MS. Fused silica capillaries with an inner diameter of 75 µm and outer diameter of 375 µm, and a total length of 64 cm, were coated with hydroxypropylcellulose (HPC) using a solution of 0.05 g mL^−1 in water. Detection was carried out by ICP-MS at m/z = 158 and m/z = 159 for Gd and Tb detection, respectively. Samples were hydrodynamically injected (0.3psi for 3 s), then mobilized using Tris 10 mM and NaCl 125 mM at 0.7 psi. Between runs, the capillary was flushed at 5 psi for 5 min with the mobilization medium. All measurements were performed at least in duplicates.
The detected peak was fitted by a sum of Gaussian distributions using Origin 8.5 software, according to Equation (8).(8) St=∑i=12Ai/σi 2πexp−t−t0^2/2σi2 where t0 is the peak residence time, and […] are the area under the curve and the temporal variance associated with each species i, respectively.
Under these experimental conditions, the molecular diffusion coefficient D is given by(9) D=Rc2t0/24σ^2=2kBT/6πηDh where Rc is the capillary radius, kB is the Boltzmann constant, T is the temperature, η is the viscosity, and Dh is the hydrodynamic diameter of the solute.
Therefore, using Equation (9), the hydrodynamic diameters can be calculated from the temporal variances measured from the fitted Taylorgram.

RB fluorescence lifetime = assay type: physicochemical; details: D2O, λexc = 470 nm; listed as AGuIX Ln@Mal-K(RB)DKPPR (Ln = Tb)
Protocol: The Ln luminescence lifetime is recorded after excitation at 545 nm for Tb and 313 nm for Gd. The fluorescence lifetime of RB is recorded after excitation at 470 nm ( τf470 ). ^1O2 emission spectra are obtained after excitation at 558 nm (maximum absorption wavelength of RB) but also after excitation at 351 nm for Tb and 273 nm for Gd.
(§1) Absorption spectra were recorded on a UV-3600 UV–visible double beam spectrophotometer (Shimadzu, Marne-La-Vallée, France). Fluorescence spectra were recorded on a Fluorolog FL3-222 spectrofluorimeter (Horiba Jobin Yvon, Palaiseau, France) equipped with a 450 W Xenon lamp and thermostated cell compartment (25 °C), a UV–visible photomultiplier R928 (Hamamatsu Photonics, Hamamatsu, Japan) and an InGaAs infrared detector (DSS-16A020L Electro-Optical System Inc, Phoenixville, PA, USA). The excitation beam was diffracted by a double ruled grating SPEX monochromator (1200 grooves/mm blazed at 330 nm). The emission beam was diffracted by a double ruled grating SPEX monochromator (1200 grooves/mm blazed at 500 nm). Singlet oxygen emission was detected through a double ruled grating SPEX monochromator (600 grooves/mm blazed at 1 µm) and a long-wave pass (780 nm). All spectra were measured in four-face quartz vials.

Ln luminescence lifetime = assay type: physicochemical; details: D2O, λexc/λdetection = 351/545 nm
[2] = Singlet oxygen production quantum yield; assay type: physicochemical; details: D2O, reference Eosin Y
[3] = Fluorescence quantum yield; assay type: physicochemical; details: D2O, λexc = 558 nm; reference tetraphenylporphyrin
Protocol: as §1
The fluorescence quantum yield (Φf) is calculated using Equation (6).(6) Φf=Φf0 . If/If0.OD0/OD. (n/n0)^2 where Φf and Φf0, If and If0, OD and OD0, n and n0 are the quantum yields, fluorescence intensities, optical densities, and refractive indices of the sample and reference, respectively.
Tetraphenylporphyrin (TPP) was chosen as the fluorescence reference standard (Φf0 = 0.11, toluene).

U-251 MG cells = experiment: Anchorage-dependent clonogenic assay with X-ray irradiation; assay type: cell-based, human; details: [RB] = 1 µM, 24 h, clones after 7 days
NRP-1 = NRP-1 (Homo sapiens, UniProt O14786); experiment: NRP-1 binding, competitive assay; details: printed in the figure, read-out: IC50 ± SD (NRP-1, Figure 12)
Protocol: The affinity of AGuIX Ln@Mal-K(RB) and AGuIX Ln@Mal-K(RB)DKPPR to NRP-1 was determined as previously described in terms of IC50 in another study.

Chain of NRP-1 (O14786 22-923): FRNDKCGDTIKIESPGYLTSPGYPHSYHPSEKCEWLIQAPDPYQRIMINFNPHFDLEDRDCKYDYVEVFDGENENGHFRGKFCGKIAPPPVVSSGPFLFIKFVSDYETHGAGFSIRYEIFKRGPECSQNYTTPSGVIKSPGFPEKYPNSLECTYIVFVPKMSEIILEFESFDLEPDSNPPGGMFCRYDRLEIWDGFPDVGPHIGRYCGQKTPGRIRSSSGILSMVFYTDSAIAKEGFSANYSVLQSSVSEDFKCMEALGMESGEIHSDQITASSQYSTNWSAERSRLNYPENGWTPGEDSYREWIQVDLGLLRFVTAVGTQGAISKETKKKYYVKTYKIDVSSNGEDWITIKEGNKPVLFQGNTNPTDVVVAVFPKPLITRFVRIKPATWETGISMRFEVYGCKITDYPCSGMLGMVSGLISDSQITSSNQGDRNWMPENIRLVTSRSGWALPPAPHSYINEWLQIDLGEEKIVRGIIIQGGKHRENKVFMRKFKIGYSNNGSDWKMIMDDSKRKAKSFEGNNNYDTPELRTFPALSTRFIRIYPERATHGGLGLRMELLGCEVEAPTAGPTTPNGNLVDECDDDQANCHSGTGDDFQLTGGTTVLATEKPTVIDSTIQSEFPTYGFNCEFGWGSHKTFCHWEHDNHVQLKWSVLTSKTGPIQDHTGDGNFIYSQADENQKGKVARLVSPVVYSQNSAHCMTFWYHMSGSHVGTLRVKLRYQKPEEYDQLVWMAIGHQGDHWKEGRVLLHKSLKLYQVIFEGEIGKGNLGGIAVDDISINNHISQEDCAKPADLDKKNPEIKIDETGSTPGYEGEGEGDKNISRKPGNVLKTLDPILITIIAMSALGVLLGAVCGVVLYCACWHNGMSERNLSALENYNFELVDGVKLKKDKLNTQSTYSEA

| Substance | Zeta potential (ζ) (Zeta potential) [mV] | percentage of population P1 [1] [%] | percentage of population P2 [1] [%] | Size, population P1 ([1]; Tris 10 mM and NaCl 125 mM) [nm] | Size, population P2 ([1]; Tris 10 mM and NaCl 125 mM) [nm] | RB fluorescence lifetime τf470 (RB fluorescence lifetime) [ns] | Ln luminescence lifetime τL (Tb) (Ln luminescence lifetime) [µs] | ^1O2 quantum yield ΦΔ351(Tb) ([2]; λexc = 351 nm) | ^1O2 quantum yield ΦΔ558 ([2]; λexc = 558 nm, listed as AGuIX Ln@Mal-K(RB)DKPPR (Ln = Tb)) | Fluorescence quantum yield Φf558 [3] | Cell survival (clonogenic capability relative to control) (U-251 MG cells; X-ray 2 Gy (320 kV, 10 mA, 3 Gy/min), fraction of untreated non-irradiated cells, mean, triplicates from 3 experiments (n = 9)) | decrease of cell growth (clones) (U-251 MG cells; X-ray 2 Gy, p = 0.02) [%] | IC50 (NRP-1) [nM] |
| --- | --- | --- | --- | --- | --- | --- | --- | --- | --- | --- | --- | --- | --- |
| Mal-K(RB)DKPPR [AGuIX Tb@Mal-K(RB)DKPPR, Mal-K(RB)DKPPR conjugated to thiolated AGuIX Tb NPs by thiol-maleimide click chemistry] | −14 | 46 | 54 | 5.4 | 32.0 | 2.8 | 345 | 0.36 | 0.68 | 0.11 | 0.43 | 57 | – |
| Mal-K(RB)DKPPR [AGuIX Tb@Mal-K(RB)DKPPR] (not fully specified (N-terminus); printed as AGuIX Tb@Mal-K(RB)DKPPR; reading uncertain) [Mal-K(RB)DKPPR conjugated to thiolated AGuIX Tb NPs by thiol-maleimide click chemistry] | – | – | – | – | – | – | – | – | – | – | – | – | 6 ± 1.3 |
